Measurements: paper PMC7136269, “CXXC5 as an unmethylated CpG dinucleotide binding protein contributes to estrogen-mediated cellular proliferation”

Tests used:
FL-CXXC5 [1] = molecular target: T1, FL-CXXC5 (human, UniProt Q7LFL8 1-322); assay: ITC; ITC: 10 uM protein, 300 uM DNA, 25 C, VP-ITC, one-site fit; DNA annealed in 20 mM Tris pH 7.5, 150 mM NaCl; protein eluted in 20 mM Tris pH 7.5, 150 mM NaCl, 1; details: protein: recombinant, tags: 6xHis removed by TEV (pET28a-MHL), blunt
T1 sequence: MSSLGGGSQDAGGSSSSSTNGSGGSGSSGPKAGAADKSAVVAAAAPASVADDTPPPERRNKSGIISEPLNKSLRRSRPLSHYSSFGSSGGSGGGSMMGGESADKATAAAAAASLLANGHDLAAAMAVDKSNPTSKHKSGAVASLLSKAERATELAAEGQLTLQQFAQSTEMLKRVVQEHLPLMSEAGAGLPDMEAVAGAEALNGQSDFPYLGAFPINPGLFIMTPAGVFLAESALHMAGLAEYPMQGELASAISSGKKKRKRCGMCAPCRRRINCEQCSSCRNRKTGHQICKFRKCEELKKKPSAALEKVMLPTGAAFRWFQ

[2] = molecular target: T2, CXXC-D (CXXC domain of CXXC5) (human, UniProt Q7LFL8 250-309); assay: as above; details: protein: recombinant; tags: 6xHis removed by TEV (pET28a-MHL); blunt
T2 sequence: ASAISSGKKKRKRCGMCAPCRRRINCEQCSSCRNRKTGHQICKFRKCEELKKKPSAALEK

FL-CXXC5 [3] = molecular target: T1, FL-CXXC5; assay: ITC; similar affinity to N1; ITC: 10 uM protein, 300 uM DNA, 25 C, VP-ITC, one-site fit; DNA annealed in 20 mM Tris pH 7.5, 150 mM NaCl; protein eluted in 20 mM Tris pH 7.5, 150 mM NaCl, 1; details: protein: recombinant; tags: 6xHis removed by TEV (pET28a-MHL); blunt; self-complementary

B1: CG DNA (dsDNA)
DNA 1: GTGATACCGGATCAGT
DNA 2: ACTGATCCGGTATCAC
binding result (FL-CXXC5 [1]): binds
binding result [2]: binds

B2: AT DNA, distinct flanks (dsDNA)
DNA 1: GAGAGACATGTCTCTC
DNA 2: GAGAGACATGTCTCTC
binding result (FL-CXXC5 [1]; self-complementary): no binding

B3: mCG DNA (dsDNA)
DNA 1: GTGATACCGGATCAGT
DNA 2: ACTGATCCGGTATCAC
modifications: 5-methyl-C at position 8 (GTGATACmCGGATCAGT); lower strand presumably also methylated at its central CpG
binding result (FL-CXXC5 [1]): no binding

B4: CG DNA, distinct flanks (dsDNA)
DNA 1: GAGAGACCGGTCTCTC
DNA 2: GAGAGACCGGTCTCTC
binding result (FL-CXXC5 [3]): binds

B5: AT DNA (dsDNA)
DNA 1: GTGATACATGATCAGT
DNA 2: ACTGATCATGTATCAC
binding result (FL-CXXC5 [1]): no binding

B6: mCG DNA, distinct flanks (dsDNA)
DNA 1: GAGAGACCGGTCTCTC
DNA 2: GAGAGACCGGTCTCTC
modifications: 5-methyl-C at position 8 (central mCG; self-complementary, so both strands)
binding result (FL-CXXC5 [1]; self-complementary): no binding
